Experiments:
[1] = test system: murine vaginal microbiota; test: 16S-based metagenomics of cervico-vaginal lavage samples; type: in vivo, mouse; conditions: FVB/n mice treated (n=12) or not (n=8), subcutaneous implant 1-2 µg/24h, 12 weeks
From the text: FVB/n mice expressing HPV16 under the control of the keratin 14 promoter (K14-HPV16 transgenic mice) were obtained from the National Cancer Institute Mouse Repository. Given that (pre)cancer development within the lower genital tract has been previously shown to be hormone-dependent in this model[75],[76], 6 to 8-week-old female mice (n = 12 per condition) were subcutaneously implanted with a Belma’s E2 implant (E2-M/90, Belma Technologies, Liege, Belgium), allowing reproducible long-term release of 17β-estradiol (1–2 µg/24 h) for 90 days[77]. A similar procedure was performed with control (FVB/n) mice. […]
Mice were randomly distributed in cages and housed under standard conditions [12 h light/12 h dark cycle, ad libitum access to food and water, constant temperature (19–21 °C) and humidity (40–50%)] in the GIGA-Mouse facility platform (University of Liege) during the entire course of the study. […] Seven µl from each samples were spread on a glass slide, fixed/stained using Diff-Quick reagents (Medion Diagnostics, Düdingen, Switzerland) and the estrous cycle stage was determined using established criteria.
DNA was isolated from cervico-vaginal lavage samples using NucleoSpin Tissue kit (Macherey Nagel, Düren, Germany). […] Of note, 7 random nucleotides were added to the 5′ region of forward primer to increase complexity and, therefore, improve sequence read quality. […]

[2] = test system: Lactobacillus jensenii LMG 6414; test: Antimicrobial assay (surviving colonies, CFU count); type: cell-based; conditions: peptide 1–10 µg/ml, 5 × 10^4 CFU/ml, 10 mM sodium phosphate buffer, 6 h, 37 °C; plated on Columbia Blood agar; n = 3
Method: (§1) Bacterial strains Lactobacillus crispatus DSM 20356, Lactobacillus iners CIP 105923 and Garnerella vaginalis CCUG 43336 were kindly provided by the Department of Clinical Microbiology at University Hospital Center of Liege. Lactobacillus jensenii LMG 6414 was obtained from BCCM/LMG Bacteria Collection (University of Gent, Belgium). Log-phase bacteria were grown on Columbia agar with 5% sheep blood (Becton Dickinson, Franklin Lakes, NJ, USA) at 37 °C in a humidified CO2 atmosphere (Lactobacilli) or in anaerobic jars (G. vaginalis). To analyze the antimicrobial effect of innate peptides expressed by vaginal/cervical mucosa, 5 × 10^4 colony-forming unit (CFU)/ml were mixed with different peptides (concentration range: 1–10 µg/ml) in 10 mM sodium phosphate buffer (SPB) (final volume 100 µl) and incubated for 45 min to 9 h at 37 °C. Where indicated, the peptides were incubated with 2 mM dithiothreitol (DTT) (Invitrogen, Carlsbad, CA, USA) for 30 min at 37 °C before adding the bacteria. In indicated experiments, incubation was carried out in potassium phosphate buffer (KPB) (pH: 7.4, 10 mM). The following peptides were tested: HβD1 (PeptaNova, Sandhausen, Germany), HβD2 (PeptaNova), HβD3 (PeptaNova), HβD4 (PeptaNova), HD-5 (PeptaNova), HD-6 (PeptaNova), elafin (PeptaNova), S100A7 (Abnova, Taipei City, Taiwan) and SLPI (R&D Systems, Minneapolis, MI, USA). Bacterial suspensions were then plated on Columbia Blood agar plates for 24–48 h to determine CFU. High-resolution images for each condition were taken. Colony detection and counts were finally performed using ImageJ software (NIH, Bethesda, MD, USA) and verified by manual counting.

[3] = test system: Lactobacillus iners CIP 105923; test: as above; type: cell-based; conditions: peptide 1–10 µg/ml, 5 × 10^4 CFU/ml, 10 mM sodium phosphate buffer, 6 h, 37 °C; plated on Columbia Blood agar; n = 3
Method: as §1

[4] = test system: Lactobacillus crispatus DSM 20356; test: as above; type: cell-based; conditions: peptide 1–10 µg/ml, 5 × 10^4 CFU/ml, 10 mM sodium phosphate buffer, 6 h, 37 °C; plated on Columbia Blood agar; n = 3
Method: as §1

Gardnerella vaginalis = test: as above; type: cell-based; conditions: peptide 1–10 µg/ml, 5 × 10^4 CFU/ml, 10 mM sodium phosphate buffer, 6 h, 37 °C; plated on Columbia Blood agar; n = 5
Method: as §1

| Molecule | composition of murine vaginal microbiota (α- and β-diversity, richness, evenness) [1] | effect on bacterial growth/survival (percentage of surviving colonies) [2] | effect on bacterial growth/survival (percentage of surviving colonies) [3] | effect on bacterial growth/survival (percentage of surviving colonies) [4] | effect on bacterial growth/survival (percentage of surviving colonies) (Gardnerella vaginalis) |
| --- | --- | --- | --- | --- | --- |
| C[C@]12CC[C@@H]3c4ccc(O)cc4CC[C@H]3[C@@H]1CC[C@@H]2O [17β-estradiol] | not altered |  |  |  |  |
| HD-5: epithelial member of the defensin family, host defense peptide (PeptaNova) (peptide, UniProt Q01523 20-94, looked up) Defensin alpha 5: ESLQERADEATTQKQSGEDNQDLAISFAGNGLSALRTSGSQARATCYCRTGRCATRESLSGVCEISGRLYRLCCR |  | inhibit the growth | inhibit the growth | inhibit the growth | inhibit the growth |
